In patent US20140080161A1, “PHOSPHATASE COUPLED KINASE ASSAY” (RESEARCH AND DIAGNOSTIC SYSTEMS, INC., priority 2010, published 2014):

Experiments:
Format in all cases: biochemical
[1] = ATP hydrolysis curve with increasing amounts of phosphatase, free phosphate by Malachite Green; conditions: 0.25 μg phosphatase, 100 nmol of 2 mM ATP, 20 minutes
From the text: The relative activity of the phosphatase on ADP and ATP can be measured by creating hydrolysis curves for ADP and ATP. For example, such hydrolysis curves may be created by performing a series of reactions separately combining set quantities of ADP or ATP with varying quantities of phosphatase and detecting the free phosphate produced. An example of such curves is described in Example 1 below. The resulting phosphate levels (or OD readings, which directly correspond to the phosphate levels) can be plotted against the amount of phosphatase used. The phosphate level or OD readings can be compared at the same quantity of the phosphatase to determine the relative activity of the phosphatase for ADP as compared to ATP. […]
The kinase reactions were carried out in 50 μL of kinase assay buffer including 25 mM Tris, 150 mM NaCl, 5 mM MgCl2, and 5 mM CaCl2 at pH 7.5 in a 96 well plate at room temperature. […] The color was developed with 30 μL Malachite Reagent B. The plate was read at 620 nm with a multi-well plate reader. […]
In this experiment, the relative activity of rhCD39L2 on ADP and ATP was determined. […] The reactions were stopped after 20 minutes and free phosphate was measured using the Malachite Green assay as described above.
The relative activity of recombinant mouse CD 39L2 (rmCD39L2) on ADP and ATP was determined in a series of reactions similar to Example 1. […]

[2] = ADP hydrolysis curve with increasing amounts of phosphatase, free phosphate by Malachite Green
From the text: The relative activity of the phosphatase on ADP and ATP can be measured by creating hydrolysis curves for ADP and ATP. For example, such hydrolysis curves may be created by performing a series of reactions separately combining set quantities of ADP or ATP with varying quantities of phosphatase and detecting the free phosphate produced. An example of such curves is described in Example 1 below. The resulting phosphate levels (or OD readings, which directly correspond to the phosphate levels) can be plotted against the amount of phosphatase used. The phosphate level or OD readings can be compared at the same quantity of the phosphatase to determine the relative activity of the phosphatase for ADP as compared to ATP. […] The amount of phosphatase to be used for kinase reactions is preferably selected from within the rapidly rising portion of the ADP hydrolysis curve. In addition, the relative activity of the phosphatase for ADP versus ATP is preferably compared within this rapidly rising portion of the hydrolysis curve, at or near the steepest portion of the curve. At phosphatase levels below this range, the generated signals are weak, while at phosphatase levels above this range, the ADP hydrolysis approaches completion, which could underestimate the activity of the phosphatase on ADP due to exhaustion of the substrate.
The kinase reactions were carried out in 50 μL of kinase assay buffer including 25 mM Tris, 150 mM NaCl, 5 mM MgCl2, and 5 mM CaCl2 at pH 7.5 in a 96 well plate at room temperature. Each reaction was stopped with 30 μL of Malachite Reagent A and 100 μL of water. The color was developed with 30 μL Malachite Reagent B. The plate was read at 620 nm with a multi-well plate reader. If the predicted phosphate content in the reaction was above 4,000 pmol, the reaction was diluted before phosphate detection.
In this experiment, the relative activity of rhCD39L2 on ADP and ATP was determined. In a first series of reactions, 100 nmol of 2 mM ATP was combined with increasing amounts of rhCD39L2 (0.03125 μg, 0.0625 μg, 0.125 μg, 0.25 μg, 0.5 μg) for 20 minutes. Likewise in a second series of reactions, 100 nmol of 2 mM ADP was combined with the same increasing amounts of rhCD39L2 for 20 minutes. The reactions were stopped after 20 minutes and free phosphate was measured using the Malachite Green assay as described above.
The relative activity of recombinant mouse CD 39L2 (rmCD39L2) on ADP and ATP was determined in a series of reactions similar to Example 1. 100 nmol of 2 mM ATP was combined with increasing amounts of rmCD39L2 (0.03125 μg, […], 0.125 0.25 μg, 0.5 μg). Likewise in a second series of reactions, 100 nmol of 2 mM ADP was combined with the same increasing amounts of rmCD39L2. The reactions were stopped after 5 minutes and free phosphate was measured using the Malachite Green assay as described above.
The experiment of Example 1 was repeated using recombinant human CD39L4 (rhCD39L4). 100 nmol of ATP (2 mM) was combined with increasing amounts of rhCD39L4 (0.03125 μg, 0.0625 μg, 0.125 μg, 0.25 μg, 0.5 μg, 1.0 μg). Likewise in a second series of reactions, 100 nmol of ADP (2 mM) was combined with the same increasing amounts of rhCD39L4 for 5 minutes. The reactions were stopped after 5 minutes and free phosphate was measured using the Malachite Green assay as described above. […] As such, the necessary preference of the phosphatase for ADP as compared to ATP is present.

[3] = Coupling capacity of the phosphatase (ADP completely hydrolyzed); conditions: 0.2 μg phosphatase
From the text: Phosphatases useful in embodiments of the invention are preferably able to completely hydrolyze all of the ADP generated in a kinase reaction. The amount of complete hydrolysis which can be performed by a phosphatase under a set of reaction conditions may be characterized as the coupling capacity of the phosphatase. As such, the coupling capacity represents the amount of ADP that can be completely hydrolyzed by a given amount of a phosphatase under specific conditions. Coupling capacity may be determined by performing a series of reactions, combining a set amount of phosphatase with increasing amounts of ADP. The reactions may be performed for various lengths of time, with different coupling capacities as a result. The desired reaction time and amount of phosphatase to be used in kinase reactions can then be selected such that the corresponding coupling capacity is greater than the anticipated amount of ADP produced in the kinase reaction. Coupling capacity can be determined as the maximum amount of ADP that is completely hydrolyzed by a given amount of phosphatase in FIG. 3. […] At this level of ADP production, the amount of phosphatase is therefore adequate. However, as the level of ADP produced increases beyond the capacity for a given amount of phosphatase, hydrolysis may not be complete. At this point, coupling capacity is not adequate for the ADP production during a kinase reaction, and the hydrolysis curve diverges and falls below the phosphate standard curve. […]
In order to provide a measurement of kinase activity, the phosphatase needs to be able to completely hydrolyze all ADP generated by the kinase reaction. In this example, the coupling capacity was determined by performing three series of reactions combining 0.2 μg rhCD39L2 with increasing amounts of ADP (3.125, 6.25, 12.5, 25, 50, and 100 nmols), with each series of reactions allowed to run for various lengths of time 10, 20 or 40 minutes. The reactions were stopped and free phosphate was measured using the Malachite Green assay as described above. […]

B1: rhCD39L2: recombinant human CD39L2, nucleotide phosphatase preferring ADP over ATP, used for coupling (protein, UniProt O75354 1-484, looked up)
Ectonucleoside triphosphate …: MKKGIRYETSRKTSYIFQQPQHGPWQTRMRKISNHGSLRVAKVAYPLGLCVGVFIYVAYIKWHRATATQAFFSITRAAPGARWGQQAHSPLGTAADGHEVFYGIMFDAGSTGTRVHVFQFTRPPRETPTLTHETFKALKPGLSAYADDVEKSAQGIRELLDVAKQDIPFDFWKATPLVLKATAGLRLLPGEKAQKLLQKVKKVFKASPFLVGDDCVSIMNGTDEGVSAWITINFLTGSLKTPGGSSVGMLDLGGGSTQIAFLPRVEGTLQASPPGYLTALRMFNRTYKLYSYSYLGLGLMSARLAILGGVEGQPAKDGKELVSPCLSPSFKGEWEHAEVTYRVSGQKAAASLHELCAARVSEVLQNRVHRTEEVKHVDFYAFSYYYDLAAGVGLIDAEKGGSLVVGDFEIAAKYVCRTLETQPQSSPFSCMDLTYVSLLLQEFGFPRSKVLKLTRKIDNVETSWALGAIFHYIDSLNRQKSPAS
[1]
  phosphate released from ATP: less than 3 nmole
[2]; 0.25 μg phosphatase, 100 nmol of 2 mM ADP, 20 minutes
  phosphate released from ADP: about 80 nmol
[2]; Example 1, 20 minutes, allowing for two hydrolyzable phosphates of ATP
  fold more active on ADP: about 70 fold
[2]; rising phases of the ADP hydrolysis curve, 20 minutes
  fold more phosphate released from ADP than from ATP: 35 fold
[3]; 10 minute reaction
  coupling capacity: 10 nmole of ADP
[3]; 20 minute reaction
  coupling capacity: 20 nmole of ADP
[3]; 40 minute reaction
  coupling capacity: 100 nmole of ADP
